Source: patent US20220356229A1
Where a chain is given by its changes, count along the chain named. “And” between values parts separate entries of the source, which are not always exact repeats. Equal entries are not always repeated.

Assays:
[1] = molecular target: SARS-CoV-2 full length Spike protein, wild type (SARS-CoV-2), P0DTC2; conditions: remark: other sources report otherwise
[2] = molecular target: SARS-CoV-2 Spike (S) protein, wild type, full length (SARS-CoV-2), P0DTC2; conditions: remark: other sources report otherwise
[3] = molecular target: full length Spike of WIV1 (WIV1)

B1: antibody 416 (antibody, V domains shown)
VH: EVQLVESGGGLVQPGRSLRLSCAASGFTFDDYAMHWVRQAPGKGLEWVSGISWNSGSIGYADSVKGRFTISRDNAKNSLYLQMNSLRAEDTALYYCAKDLAWLSGGMDVWGQGTTVTVSS
VL: not shown
Q: Which median fluorescence fold over isotype (fold over isotype control) [1] does the source give for B1 here?
A: 110

B2: antibody 315 (antibody, V domains shown)
VH: QVQLVQSGSELKKPGASVKLSCQASGYSFTNHAMNWVRQAPGQGLEWMGWINTNTGNPTYAQGFTGRFVFSLDTSVSTTYLHISSLKAEDTAVYYCARASARPGVATNLDFWGQGTLVVVSS
VL: DIQMTQSPSSLSASVGDRVTITCRASQNIDNYLNWYQQKPGKAPKLLIYAASRLHSGVPSRFSGSGSGTDFTLIISSLQPEDLATYYCQQSYSNPLTFGPGTKVDIR
Q: B2 was tested. Which bead binding signal (fold over isotype) (fold over isotype) [1] did it give?
A: 592

B3: antibody 452 (antibody, V domains shown)
VH: QVQLVESGGGLVKPGGSLRLSCAASGFTFSDYYLSWIRQAPGKGLEWVSYISSSGSNIYYADSVKGRFTISRDNAKNSLYLQMNSLRADDTAVFYCARAGRYCSGGSCRVEYFQHWGQGTLVTVSS
VL: SYELTQPPSVSVSPGQTARITCSGDALPKQYAYWYQQKPGQAPVLVIYKDNERPSGIPERFSGSSSGTTATLTISGVQAEDEADYYCQSADSSGTVVFGGGTKLTVL
Q: For B3, which median fluorescence fold over isotype (fold over isotype control) [1] is on record?
A: 854

B4: antibody 493 (antibody, V domains shown)
VH: EVQLVESGGGLIQPGRSLRLSCAASGFTVSITYMSWVRQAPGKGLEWVSLIYSGGSSYYADSVKGRFTISRDNSKNTLYLQMNSLRAEDTAVYYCATTMVRGVIISYYYGMDVWGQGTTVTVSS
VL: QSALTQPASVSGSPGQSITISCTGTSSDVGGYNYVSWYQQHPGKAPKLMIYEVSNRPSGVSNRFSGSKSGNTASLTISGLQAEDEADYYCSSYTSSSTLVFGGGTKLTVL
Q: For B4, which median fluorescence, fold over isotype control (fold over isotype) [2] is on record?
A: 1.1

B5: antibody 390 (antibody, V domains shown)
VH: B4 VH with R16G, I31S, T32N, L50I, S57T, T90S, Y94S, V103L
VL: B4 VL
Q: B5 was tested. Which fold over isotype control (median fluorescence) (fold over isotype) [1] did it give?
A: 637 and 341 and 318

B6: antibody 392 (antibody, V domains shown)
VH: QVQLQESGPGLVKPSGTLSLTCAVSGGSISSSNWWSWVRQPPGKGLEWIGEIYHSGSTNYNPSLKSRVTISVDKSKNQFSLKLSSVTAADTAVYYCARGWRATLYGMDVWGQGTTVTVSS
VL: B4 VL with G31S, Y34L, N55K, S91C, T94A, S95G, L99W
Q: B6 was tested. Which fold over isotype control (median fluorescence) (fold over isotype) [1] did it give?
A: 509

B7: antibody 413 (antibody, V domains shown)
VH: EVQLVESGGGLIQPGGSLRLSCAASGFTVSGNYMNWVRQAPGKGLEWVSVIYSGGSTYYADSVKGRFTISRANSKNTLYLQMNSLRAEDTAVYYCASTSLVRGLIILYYYGMDVWGQGTTVTVSS
VL: B4 VL
Q: For B7, which median fluorescence fold over isotype (fold over isotype control) [1] is on record?
A: 969 and 367 and 416

B8: antibody 325 (antibody, V domains shown)
VH: QVQLQESGPGLVKPSQTLSLTCTVSGGSISGGGYYWSWIRQHPGKGLEWIGYIYYSGSTYYNPSLQSRVTISVDTSKNQFSLKLSSVTAADTAVYYCARVGTSSVWYFDYWGQGTLVTVSS
VL: QSALTQPRSVSGSPGQSVTISCTGTSSDVGGYNYVSWYQQHPGKAPKLMIYDVTKRPSGVPDRFSGSKSGNTASLTISGLQAEDEADYYCSSYAGSWVFGGGTKLTVL
Q: For B8, which fold over isotype (median fluorescence intensity) (fold over isotype) [2] is on record?
A: 1.08

B9: antibody 322 (antibody, V domains shown)
VH: EVQLVESGGGLVQPGGSLRLSCAASGFTFSSYWMSWVRQAPGKGLEWVANIKQDGSEKYYVDSVKGRFTISRDNAKNSLYLQMNSLRAEDTAVYYCARDEDVAAALDYWGQGTLVTVSS
VL: SYVLTQPPSVSVAPGKTARITCGGNNIGSKSVHWYQQKPGQAPVLVIYYDSDRPSGIPERFSGSNSGNTATLTISRVEAGDEADYYCQVWDSSSDHPERVFGGGTKLTVL
Q: How did the fold over isotype (median fluorescence intensity) (fold over isotype) [2] turn out when B9 was run?
A: 1.65

B10: antibody 362 (antibody, V domains shown)
VH: QVQLVESGGGVVQPGRSLRLSCAASGFNLSNYAMHWVRQASGKGLEWVSLISYDGSVKYYTDSVKGRFTVSGDNSKNTLFLQMNSLRPDDSALYYCVRGGVSGPNSFDMWGQGTTVTVSS
VL: DVVMTQSPLSLPVTLGQPATISCRSSQSLVYSDGNTYVNWFQQRPGQSPRRLIYQVSIRASGVPDRFSGSGSGTDFALKISRVEAEDVGVYYCMQGTHWPVTFGQGTKVEIK
Q: For B10, which bead binding signal (fold over isotype) (fold over isotype) [1] is on record?
A: 503

Q: And the fold over isotype (median fluorescence intensity) (fold over isotype) [2]?
A: 9.45

B11: antibody 337 (antibody, V domains shown)
VH: QVQLVESGGGVVQPGRSLRLSCAASGFTFSSYGMHWVRQAPGKGLEWVAIIWYDGSNKYYADSVKGRFTISRDNSKNTLYLQMNSLRAEDTAVYYCAKDTGGYCSGGSCYPESYFDYWGQGTLVTVSS
VL: SYVLTQPPSVSVAPGKTARITCGGNNIGSKSVHWYQQKPGQAPVLVIYYDSDRPSGIPERFSGSNSGNTATLTINRVEAGDEADYYCQVWDGSSDHLYVFGTGTKVTVL
Q: Which bead binding signal (fold over isotype) (fold over isotype) [1] does the source give for B11 here?
A: 756

B12: anti-SARS-CoV-2 antibody 311 (antibody, V domains shown)
VH: QVQLQESGPGLVKPSETLSLTCTVSGYSISSGYYWGWIRQPPGKGLEWIGSIYHSGSTYYNPSLKSRVTISVDTSKNQFSLKLSSVTAADTAVYYCAREETLGSSWYESYIDYWGQGTLVTVSS
VL: B11 VL with N75S, G92S, L97P, Y98R, T102G, V106L
Q: For B12, which fold over isotype control (median fluorescence) (fold over isotype) [3] is on record?
A: 1.11 and 1.14

B13: anti-SARS-CoV-2 antibody 304 (antibody, V domains shown)
VH: EVQLLESGGGLVQPGGSLRLSCAASGFTFSTYAMSWVRQAPGKGLEWVSAISGSGGSTYYADSVKGRFTISRDNSKNTLYLQMNSLRAEDTAVYYCASGYSPDYWGQGTLVTVSS
VL: AIQMTQSPSSLSASVGDRVTITCRASQGIRNDLGWYQQKPGKAPKLLIYAASSLQSGVPSRFSGSGSGTDFTLTISSLQPEDFATYYCLQDYNYPRTFGQGTKVEIK
Q: Which fold over isotype control (median fluorescence) (fold over isotype) [3] does the source give for B13 here?
A: 1.01 and 1.04

B14: antibody 396 (antibody, V domains shown)
VH: QVQLQQWGAGLLKPSETLSLTCAVYGGSFSGYYWSWIRQPPGKGLEWIGEIIHSGSTNYNPSLKSRVTISVDTSKNQFSLKLSSVTAADTAVYYSARRTGLLWFREGSYYFDYWGQGTLVTVSS
VL: B13 VL with A1D, L46R, D70E, D91H, Y92N, N93S, R96L, Q100G
Q: With B14 as the binder, how does the fold over isotype control (median fluorescence) (fold over isotype) [1] read?
A: 553

B15: antibody 521 (antibody, V domains shown)
VH: QVQLVESGGGVVQPGRSLRLSCAASGFTFSSYGMHWVRQAPGKGLEWVAVIWYDGSNKYYADSVKGRFTISRDNSKNTLYLQMNSLRAEDTAVYYCAREGNDYGDYGEWELLGYFDYWGQGTLVTVSS
VL: SYELTQPPSVSVSPGQTARITCSGDALPKKYAYWYQQKSGQAPVLVIYEDSKRPSGIPERFSGSSSGTMATLTISGAQVEDEADYYCYSTDSSGNHRRVFGGGTKLTVL
Q: With B15 as the binder, how does the median fluorescence, fold over isotype control (fold over isotype) [2] read?
A: 0.86
